From the RNAGym collection of RNA variant scans (doi:10.1101/gr.219683.116) come the findings set out here.

Sequences and labels used below:
B1: mRNA-splicing (parent)
chain: AGUUGCUGCUGGGAGCUCCAGCACAGUGAAAUGGACAGAAGGGCAGAGCAA

In this data set the parent is B1. Nature of the data set: exon inclusion enrichment index; higher = more inclusion; WT1 exon 5 minigene, HEK293.
On to G5C C6A U7C G8A U10A A37U G38U, for which the “exon inclusion enrichment index” value is 0.0186. As for G5C C6A U7C G8U U10A, the figure is 0.146; as for G5U, 0.103. As for G5A C6U U7A G8U C9A C19G A20U, the figure is 0.0389. For G5C C6U G8C C9U U10C C18U C19A, the “exon inclusion enrichment index” value is 0.179. As to G5C C6A U7C G8A U10A U32C G33U, the “exon inclusion enrichment index” value turned out to be 0.0717. For C6A U7A C9A U10A G15C C16G the value was 0.812; for G5A U7C G8A U10C C24G A25C, 3.54; for U4C G5U G8U C9U, 0.371. As for G5A U7A U10C, the figure is 1.84; as for G5A C6U U7A G8U C9A G43A, 0.454.

As for G5U G8U C9U C18U C19A, the “exon inclusion enrichment index” value is 0.00338. Take C6A U7A C9A U10A C22U A23G: the “exon inclusion enrichment index” value came to 0.694. As for G5A C6U U7A G8U C9A G33C G34A, the figure is 0.0386. In the case of G5A C6G U7G C9A G12U G13U, the “exon inclusion enrichment index” value stood at 0.000533. For G2A G5C C6A U7C G8A U10A, the “exon inclusion enrichment index” value came to 0.316.

Regarding U10G G11U, the “exon inclusion enrichment index” value came to 2.4.

As for G38U A39G, the “exon inclusion enrichment index” value was found to be 0.0472. G5U G8U C9U G34U A35G: the “exon inclusion enrichment index” value was 0.0289.

In the case of C6A U7C C9A U10C G21A C22A, the “exon inclusion enrichment index” value is 2.06. As for C6A U7A C9A U10A C24G A25G, the figure is 0.308. On to U4G G5A C6G U7C U10C, for which the “exon inclusion enrichment index” value came to 2.22.

On to G5A C6U U7A G8U C9A A37C G38C, for which the “exon inclusion enrichment index” value worked out at 0.0761. As to G5A C6U U7A G8U C9A A37C G38A, the “exon inclusion enrichment index” value is 0.0896.

As for G5A C6U U7A G8U C9A C16A, the “exon inclusion enrichment index” value worked out at 0.0643. As for G5A C6G U7G C9A G43C C44G, the figure is 0.0277; as for G2C U3G G5A C6G U7G C9A, 0.00533.

On to C6A U7A G8U C9A U10C, for which the “exon inclusion enrichment index” value worked out at 1.38. As for G5C C6U G8C C9U U10C A40G G41U, the figure is 1.75; as for G5C C6G U7C U10G G11C, 2.32. For C6A U7A C9A U10A C36U A37G the value was 0.602; for G5C C6A U7C G8A C9G U10C, 1.42. With G5C C6U G8A C9U U10C, the “exon inclusion enrichment index” value turned out to be 0.941. As for G5U G8U C9U G42U G43U, the figure is 0.409; as for U3G U4G C6A U7C C9A U10C, 1.23; as for G5A C6G U7G C9A G13C A14C, 0.00967. As for G5C C6U G8C C9U U10C G12A G13U, the figure is 0.128. For C6A U7C C9A U10C A47U G48C the value was 2.31; for G5A U7C G8A U10C G15C C16A, 1.77. Turning to G5C C6G U7C U10C A35C, the “exon inclusion enrichment index” value worked out at 1.69. On to G5C C6A U7C G8A U10A C44A A45C, for which the “exon inclusion enrichment index” value turned out to be 0.385. For the variant G5A U7C G8A U10C A39U A40C, the “exon inclusion enrichment index” value came out at 2.41.

In the case of G5A U7C G8A U10C A39U A40G, the “exon inclusion enrichment index” value came to 0.575. On to G5A C6U U7A G8U C9A G28A, for which the “exon inclusion enrichment index” value came to 0.0134. G5A C6U U7A G8U C9A G28U: the “exon inclusion enrichment index” value turned out to be 0.0124.

Turning to C6A U7C G8A U10A, the “exon inclusion enrichment index” value was determined as 0.127. As for G5C U7A U10C, the figure is 1.62. As for G5A U7C G8A U10C U17A C18A, the figure is 1.29; as for G5A C6G U7G U10C, 0.0118. Consider U4C C6G U7C U10C, for which the “exon inclusion enrichment index” value came out at 3.95.

On to G5A C6G U7G C9A A35C C36U, for which the “exon inclusion enrichment index” value turned out to be 0.000826. As for C6A U7C C9A U10C A31C, the figure is 3.96; as for G5A C6G U7G C9A C22A, 0.00351. As for C6A U7C C9A U10C U32A G33C, the figure is 3.5; as for G5C C6A U7C G8A U10A G43U, 0.0948.

C6A U7C C9A U10C A14G G15U: the “exon inclusion enrichment index” value turned out to be 2.01. Regarding C6A U7C C9A U10C A39U A40C, the “exon inclusion enrichment index” value amounted to 3.44.

Turning to G5A C6U U7A G8U C9A G15U C16A, the “exon inclusion enrichment index” value was found to be 0.0179. For the variant G5C C6A U7C G8A U10A A47U G48U, the “exon inclusion enrichment index” value was determined as 0.111.

As to G5C C6U G8C C9U U10C A23U C24A, the “exon inclusion enrichment index” value stood at 0.79. As for A30C A31C, the figure is 0.337. As to G5A C6U U7A G8U C9A C18A C19U, the “exon inclusion enrichment index” value came out at 0.00112.

Take G5C C6U G8C C9U U10C G43U: the “exon inclusion enrichment index” value amounted to 1.51. Consider G5C C6A U7C G8A U10A U32G G33A, for which the “exon inclusion enrichment index” value is 0.00787.

As for C6A U7A C9A U10A G11U G12A, the “exon inclusion enrichment index” value worked out at 0.701. As for G5C C6G U7C U10C A14G, the figure is 1.93; as for G2U U3A G5A C6U U7A G8U C9A, 0.247. Consider G5C C6A U7C G8A U10A A40G G41C, for which the “exon inclusion enrichment index” value was 0.666. As for G5C C6U G8C C9U U10C C16U U17G, the figure is 0.905; as for C6A U7A C9A U10A C22G, 0.964. In the case of G5A C6G U7G C9A G33A G34A, the “exon inclusion enrichment index” value turned out to be 0.000844.

For G5C C6A U7C U10A, the “exon inclusion enrichment index” value turned out to be 0.259.

G5A C6U U7A G8U C9A C44U A45G: the “exon inclusion enrichment index” value was determined as 0.0383. For G21C C22G the value was 3.35; for U17G C18A, 1.73. As for G5A C6U U7A G8U C9A C36U A37G, the figure is 0.0518; as for C6A U7C C9A U10C A29G A30U, 1.72; as for C6A U7A C9A U10A G33C, 1.04. For G5A U7C G8A U10C A45C G46A the value was 1.42; for G5C C6U G8C C9U U10C C16G U17C, 1.12; for G5U C6U U7C G8A U10C, 1.85. With C6A U7C C9A U10G, the “exon inclusion enrichment index” value was found to be 0.756.

As to C6A U7C C9A U10C, the “exon inclusion enrichment index” value is 3.63.
